# T1: PTDHI (phosphite dehydrogenase with a C-terminal RIDD tag)
# T1 chain: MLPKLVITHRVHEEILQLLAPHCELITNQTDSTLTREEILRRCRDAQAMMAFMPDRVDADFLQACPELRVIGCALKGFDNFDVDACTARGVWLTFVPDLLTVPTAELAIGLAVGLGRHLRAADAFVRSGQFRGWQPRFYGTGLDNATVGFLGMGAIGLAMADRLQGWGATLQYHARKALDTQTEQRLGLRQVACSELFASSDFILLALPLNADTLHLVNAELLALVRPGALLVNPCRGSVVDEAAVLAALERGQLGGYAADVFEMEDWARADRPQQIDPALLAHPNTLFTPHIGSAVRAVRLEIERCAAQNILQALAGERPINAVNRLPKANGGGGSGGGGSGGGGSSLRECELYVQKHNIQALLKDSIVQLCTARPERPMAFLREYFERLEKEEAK
# B1: PTDHI (phosphite dehydrogenase with a C-terminal RIDD tag) (enzyme)
# chain: MLPKLVITHRVHEEILQLLAPHCELITNQTDSTLTREEILRRCRDAQAMMAFMPDRVDADFLQACPELRVIGCALKGFDNFDVDACTARGVWLTFVPDLLTVPTAELAIGLAVGLGRHLRAADAFVRSGQFRGWQPRFYGTGLDNATVGFLGMGAIGLAMADRLQGWGATLQYHARKALDTQTEQRLGLRQVACSELFASSDFILLALPLNADTLHLVNAELLALVRPGALLVNPCRGSVVDEAAVLAALERGQLGGYAADVFEMEDWARADRPQQIDPALLAHPNTLFTPHIGSAVRAVRLEIERCAAQNILQALAGERPINAVNRLPKANGGGGSGGGGSGGGGSSLRECELYVQKHNIQALLKDSIVQLCTARPERPMAFLREYFERLEKEEAK
# modifications: PTDH taken as the thermostable A176R variant of PDB 4E5P (cited in Figure 1); the exact pCRE2 variant and C-terminus are not printed. RIDD taken as the conventional RI-alpha docking domain …
# B2: PAMOI (phenylacetone monooxygenase with a C-terminal RIDD tag) (enzyme)
# chain: MAGQTTVDSRRQPPEEVDVLVVGAGFSGLYALYRLRELGRSVHVIETAGDVGGVWYWNRYPGARCDIESIEYCYSFSEEVLQEWNWTERYASQPEILRYINFVADKFDLRSGITFHTTVTAAAFDEATNTWTVDTNHGDRIRARYLIMASGQLSVPQLPNFPGLKDFAGNLYHTGNWPHEPVDFSGQRVGVIGTGSSGIQVSPQIAKQAAELFVFQRTPHFAVPARNAPLDPEFLADLKKRYAEFREESRNTPGGTHRYQGPKSALEVSDEELVETLERYWQEGGPDILAAYRDILRDRDANERVAEFIRNKIRNTVRDPEVAERLVPKGYPFGTKRLILEIDYYEMFNRDNVHLVDTLSAPIETITPRGVRTSEREYELDSLVLATGFDALTGALFKIDIRGVGNVALKEKWAAGPRTYLGLSTAGFPNLFFIAGPGSPSALSNMLVSIEQHVEWVTDHIAYMFKNGLTRSEAVLEKEDEWVEHVNEIADETLYPMTASWYTGANVPGKPRVFMLYVGGFHRYRQICDEVAAKGYEGFVLTGGGGSGGGGSGGGGSSLRECELYVQKHNIQALLKDSIVQLCTARPERPMAFLREYFERLEKEEAK
# Key:
# [1] = target: T1, PTDHI (phosphite dehydrogenase with a …); experiment: SEC; each purified tagged protein alone, in the absence of any other tagged protein; Superdex 200 (10/300), 50 mM Tris–HCl with 150 mM NaCl, pH 7.5; details: both partners purified
# [2] = target: the molecule itself; experiment: as above
Binder,stoichiometry N [1],stoichiometry N [2]
B1,2,–
B2,–,2

# — article PMC8234031, “Modular Assembly of Phosphite Dehydrogenase and Phenylacetone Monooxygenase for Tuning Cofactor Regeneration” (Biomolecules, 2021)
